Source: the Immune Epitope Database (IEDB)
pIC50: −log10 of the molar value.

What was measured:
Assay in all cases: IEDB peptide-MHC binding, purified MHC/competitive/radioactivity; ≥ and ≤ were set here for values at or beyond the usual limits of such assays
[1] = target: HLA-A*02:01
[2] = target: HLA-A*02:02
[3] = target: HLA-A*68:02
[4] = target: HLA-A*02:06
[5] = target: HLA-A*02:03
[6] = source organism: Vaccinia virus WR
[7] = source organism: Mammarenavirus machupoense
[8] = source organism: Hepacivirus hominis

DVLPFDIKYI showed a pIC50 [1, 6] of 6.74, a pIC50 [2, 6] of 5.92 and a pIC50 [3, 6] of 6.44. For the same sequence, the pIC50 [4, 6] was 5.96 and the pIC50 [5, 6] was 6.73.

With TIGTIAGGV the pIC50 [1, 6] was 6.11, the pIC50 [2, 6] was 6.53 and the pIC50 [3, 6] was 7.15. It also gave a pIC50 [4, 6] of 5.94 and a pIC50 [5, 6] of 7.77.

For AMPGVLSYV, the pIC50 [1, 7] was 8.08, the pIC50 [2, 7] was 8.38 and the pIC50 [3, 7] was 6.08. It also gave a pIC50 [4, 7] of 7.66 and a pIC50 [5, 7] of 8.14.

In the case of TINVNSLAL, the pIC50 [1, 6] was 5.82, the pIC50 [2, 6] was 5.70 and the pIC50 [3, 6] was 5.82. For the same sequence, the pIC50 [4, 6] was 5.66 and the pIC50 [5, 6] was 5.81.

In the case of DVERLQMAGV, the pIC50 [1, 6] was 6.17, the pIC50 [2, 6] was 6.67 and the pIC50 [3, 6] was 6.44. For the same sequence, the pIC50 [4, 6] was 6.11 and the pIC50 [5, 6] was 6.98.

Work on NLWNTFTRL yielded a pIC50 ([1]; source organism: SARS-CoV1) of 8.16, a pIC50 ([2]; source organism: SARS-CoV1) of 7.62 and a pIC50 ([3]; source organism: SARS-CoV1) of 6.41. The pIC50 ([4]; source organism: SARS-CoV1) was 6.78 and the pIC50 ([5]; source organism: SARS-CoV1) was 6.71.

For STSPTRTWKV, the pIC50 [1, 6] was 6.13, the pIC50 [2, 6] was 6.40 and the pIC50 [3, 6] was 6.88. It also gave a pIC50 [4, 6] of 6.30 and a pIC50 [5, 6] of 6.14.

Work on QLMCQPILLL yielded a pIC50 ([1]; source organism: SARS-CoV1) of 7.92, a pIC50 ([2]; source organism: SARS-CoV1) of 7.04 and a pIC50 ([3]; source organism: SARS-CoV1) of 5.64. The pIC50 ([4]; source organism: SARS-CoV1) was 6.49 and the pIC50 ([5]; source organism: SARS-CoV1) was 6.66.

Work on KIEDLINQLV yielded a pIC50 [1, 6] of 6.54, a pIC50 [2, 6] of 7.06 and a pIC50 [3, 6] of 5.98. The pIC50 [4, 6] was 6.84 and the pIC50 [5, 6] was 7.15.

GLIAIVMVTI gave a pIC50 ([1]; source organism: SARS-CoV1) of 7.21, a pIC50 ([2]; source organism: SARS-CoV1) of 8.12 and a pIC50 ([3]; source organism: SARS-CoV1) of 5.78. For the same sequence, the pIC50 ([4]; source organism: SARS-CoV1) was 6.86 and the pIC50 ([5]; source organism: SARS-CoV1) was 7.72.

For NTIDKSSPL, the pIC50 [1, 6] was 6.01, the pIC50 [2, 6] was 7.09 and the pIC50 [3, 6] was 8.24. It also gave a pIC50 [4, 6] of 7.72 and a pIC50 [5, 6] of 7.57.

For TQWSLFFFV, the pIC50 ([1]; source organism: SARS-CoV1) was 9.11, the pIC50 ([2]; source organism: SARS-CoV1) was 7.10 and the pIC50 ([3]; source organism: SARS-CoV1) was 6.98. It also gave a pIC50 ([4]; source organism: SARS-CoV1) of 9.09 and a pIC50 ([5]; source organism: SARS-CoV1) of 6.27.

VLAGGVLAAV showed a pIC50 [1, 8] of 8.11, a pIC50 [2, 8] of 8.37 and a pIC50 [3, 8] of 7.23. It also gave a pIC50 [4, 8] of 7.48 and a pIC50 [5, 8] of 8.17.

NMLDDFSAGA showed a pIC50 [1, 6] of 6.72, a pIC50 [2, 6] of 6.51 and a pIC50 [3, 6] of 5.59. It also gave a pIC50 [4, 6] of 6.62 and a pIC50 [5, 6] of 6.79.

With AILHNIYRL the pIC50 [1, 6] was 7.32, the pIC50 [2, 6] was 6.97 and the pIC50 [3, 6] was 5.59. The pIC50 [4, 6] was 7.36 and the pIC50 [5, 6] was 6.09.

Sequence LMIGNYFSGV has a pIC50 [1, 6] of 9.57, a pIC50 [2, 6] of 9.89 and a pIC50 [3, 6] of 6.80. The pIC50 [4, 6] was 9.89 and the pIC50 [5, 6] was 10.03.

In the case of IVVALSSLV, the pIC50 [1, 6] was 6.97, the pIC50 [2, 6] was 7.57 and the pIC50 [3, 6] was 8.27. For the same sequence, the pIC50 [4, 6] was 8.09 and the pIC50 [5, 6] was 8.41.

With CTINVNSLA the pIC50 [1, 6] was 5.98, the pIC50 [2, 6] was 5.98 and the pIC50 [3, 6] was 7.89. The pIC50 [4, 6] was 6.61 and the pIC50 [5, 6] was 5.79.

KVIKLVKSL showed a pIC50 [1, 6] of 6.40, a pIC50 [2, 6] of 6.24 and a pIC50 [3, 6] of 6.44. It also gave a pIC50 [4, 6] of 6.59 and a pIC50 [5, 6] of 7.37.

For MLLTFLTSLL, the pIC50 ([1]; source organism: SARS-CoV1) was 7.96, the pIC50 ([2]; source organism: SARS-CoV1) was 9.14 and the pIC50 ([3]; source organism: SARS-CoV1) was 6.52. For the same sequence, the pIC50 ([4]; source organism: SARS-CoV1) was 7.60 and the pIC50 ([5]; source organism: SARS-CoV1) was 8.14.

In the case of MAFDISVNA, the pIC50 [1, 6] was 6.83, the pIC50 [2, 6] was 6.72 and the pIC50 [3, 6] was 8.74. For the same sequence, the pIC50 [4, 6] was 7.89 and the pIC50 [5, 6] was 7.82.

For DQTHIKTIAV, the pIC50 [1, 6] was 6.19, the pIC50 [2, 6] was 5.66 and the pIC50 [3, 6] was 6.39. For the same sequence, the pIC50 [4, 6] was 6.00 and the pIC50 [5, 6] was 6.41.

In the case of EVNDTHYTV, the pIC50 [1, 6] was 5.51, the pIC50 [2, 6] was 6.88 and the pIC50 [3, 6] was 9.30. It also gave a pIC50 [4, 6] of 5.32 and a pIC50 [5, 6] of 6.94.

FLLPLTSLVI showed a pIC50 [1, 6] of 9.08, a pIC50 [2, 6] of 7.96 and a pIC50 [3, 6] of 5.99. For the same sequence, the pIC50 [4, 6] was 8.60 and the pIC50 [5, 6] was 8.29.

Work on LIVILFIMFM yielded a pIC50 [1, 6] of 6.86, a pIC50 [2, 6] of 7.07 and a pIC50 [3, 6] of 7.22. For the same sequence, the pIC50 [4, 6] was 6.92 and the pIC50 [5, 6] was 6.36.

With FTNSQIFNI the pIC50 [1, 6] was 8.05, the pIC50 [2, 6] was 8.16 and the pIC50 [3, 6] was 9.64. For the same sequence, the pIC50 [4, 6] was 8.32 and the pIC50 [5, 6] was 8.15.

Sequence DLLNVTYNI has a pIC50 [1, 6] of 6.10, a pIC50 [2, 6] of 6.53 and a pIC50 [3, 6] of 6.67. The pIC50 [4, 6] was 5.89 and the pIC50 [5, 6] was 6.71.

With RAFIYSIMET the pIC50 [1, 6] was 6.18, the pIC50 [2, 6] was 7.09 and the pIC50 [3, 6] was 6.07. It also gave a pIC50 [4, 6] of 6.24 and a pIC50 [5, 6] of 7.15.

In the case of MLPESDLDKV, the pIC50 [1, 6] was 7.96, the pIC50 [2, 6] was 8.49 and the pIC50 [3, 6] was 6.71. The pIC50 [4, 6] was 8.36 and the pIC50 [5, 6] was 5.75.

RLRQDTEDI was tested, and the pIC50 [1, 6] was 6.66, the pIC50 [2, 6] was 6.64 and the pIC50 [3, 6] was 5.38. It also gave a pIC50 [4, 6] of 5.34 and a pIC50 [5, 6] of 6.41.

DVSLSAYII showed a pIC50 [1, 6] of 5.82, a pIC50 [2, 6] of 6.16 and a pIC50 [3, 6] of 6.23. For the same sequence, the pIC50 [4, 6] was 5.36 and the pIC50 [5, 6] was 6.12.

TMSIYIAVA showed a pIC50 [1, 6] of 6.87, a pIC50 [2, 6] of 7.09 and a pIC50 [3, 6] of 6.52. It also gave a pIC50 [4, 6] of 6.10 and a pIC50 [5, 6] of 7.39.

Sequence FVDEFYAYL has a pIC50 ([1]; source organism: SARS-CoV1) of 9.66, a pIC50 ([2]; source organism: SARS-CoV1) of 10.05 and a pIC50 ([3]; source organism: SARS-CoV1) of 7.42. For the same sequence, the pIC50 ([4]; source organism: SARS-CoV1) was 9.44 and the pIC50 ([5]; source organism: SARS-CoV1) was 8.59.

SISSVLTIL was tested, and the pIC50 [1, 6] was 7.59, the pIC50 [2, 6] was 8.92 and the pIC50 [3, 6] was 7.80. The pIC50 [4, 6] was 6.96 and the pIC50 [5, 6] was 8.40.

Work on SLEATFIDV yielded a pIC50 [1, 6] of 6.74, a pIC50 [2, 6] of 7.46 and a pIC50 [3, 6] of 7.64. The pIC50 [4, 6] was 8.00 and the pIC50 [5, 6] was 7.10.
